Laboratory results published in paper doi:10.1101/2022.12.22.521673 (bioRxiv, 2022).

T1: Bmh2 (S. cerevisiae (endogenous in meiotic …, UniProt P34730 1-273))
T1 sequence (looked up): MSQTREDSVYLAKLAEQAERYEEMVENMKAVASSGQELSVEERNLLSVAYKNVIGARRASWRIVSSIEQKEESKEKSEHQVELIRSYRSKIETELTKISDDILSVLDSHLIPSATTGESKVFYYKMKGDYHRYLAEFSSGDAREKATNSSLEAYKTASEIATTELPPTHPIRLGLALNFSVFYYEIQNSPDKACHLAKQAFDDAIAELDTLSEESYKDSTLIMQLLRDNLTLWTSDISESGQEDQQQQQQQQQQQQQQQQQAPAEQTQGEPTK

T2: recombinant Rim4-6×His (S. cerevisiae, UniProt P38741 1-713)
T2 sequence (looked up): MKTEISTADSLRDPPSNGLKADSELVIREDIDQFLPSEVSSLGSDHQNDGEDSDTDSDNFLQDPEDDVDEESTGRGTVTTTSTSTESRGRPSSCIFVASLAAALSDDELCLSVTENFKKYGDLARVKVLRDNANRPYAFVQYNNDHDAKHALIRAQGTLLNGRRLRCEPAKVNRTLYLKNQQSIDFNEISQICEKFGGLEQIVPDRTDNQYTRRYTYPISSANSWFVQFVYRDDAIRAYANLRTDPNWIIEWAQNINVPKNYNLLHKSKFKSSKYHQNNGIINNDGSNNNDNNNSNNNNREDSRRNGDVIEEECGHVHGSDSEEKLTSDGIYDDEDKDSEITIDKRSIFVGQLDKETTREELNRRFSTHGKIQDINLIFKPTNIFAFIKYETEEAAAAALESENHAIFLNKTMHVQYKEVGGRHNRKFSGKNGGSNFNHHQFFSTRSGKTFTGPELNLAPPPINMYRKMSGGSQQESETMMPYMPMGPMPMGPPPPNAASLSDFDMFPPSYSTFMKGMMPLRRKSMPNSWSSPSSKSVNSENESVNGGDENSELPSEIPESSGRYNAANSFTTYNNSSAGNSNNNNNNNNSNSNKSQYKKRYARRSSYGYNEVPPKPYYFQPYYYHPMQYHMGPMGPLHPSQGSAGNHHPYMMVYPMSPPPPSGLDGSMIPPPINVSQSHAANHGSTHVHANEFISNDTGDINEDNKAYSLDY

T3: recombinant Rim4-EGFP (S. cerevisiae, UniProt P38741 1-713)
T3 sequence (looked up): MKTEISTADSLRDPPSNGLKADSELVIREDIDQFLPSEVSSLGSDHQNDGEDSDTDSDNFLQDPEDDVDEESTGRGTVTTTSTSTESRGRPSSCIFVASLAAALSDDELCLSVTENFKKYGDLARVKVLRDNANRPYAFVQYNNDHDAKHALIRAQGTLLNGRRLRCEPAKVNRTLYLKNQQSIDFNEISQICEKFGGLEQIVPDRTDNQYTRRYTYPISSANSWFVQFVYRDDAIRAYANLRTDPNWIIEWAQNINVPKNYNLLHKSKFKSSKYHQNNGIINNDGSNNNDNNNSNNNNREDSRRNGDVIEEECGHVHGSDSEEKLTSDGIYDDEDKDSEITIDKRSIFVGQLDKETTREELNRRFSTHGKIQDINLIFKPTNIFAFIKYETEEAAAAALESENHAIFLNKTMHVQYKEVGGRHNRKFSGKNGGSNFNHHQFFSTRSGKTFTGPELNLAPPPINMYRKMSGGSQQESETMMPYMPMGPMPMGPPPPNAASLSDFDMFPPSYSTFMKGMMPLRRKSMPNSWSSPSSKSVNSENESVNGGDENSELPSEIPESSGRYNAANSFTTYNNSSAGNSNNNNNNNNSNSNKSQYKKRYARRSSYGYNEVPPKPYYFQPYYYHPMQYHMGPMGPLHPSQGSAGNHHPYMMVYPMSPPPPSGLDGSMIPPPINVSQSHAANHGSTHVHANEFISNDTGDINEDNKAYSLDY


Tests used:
[1] = molecular target: Rim4-FLAG (S. cerevisiae) (UniProt P38741); experiment: mass photometry
Bmh2 = molecular target: T1, Bmh2; experiment: mass photometry
recombinant Rim4-6×His = molecular target: T2, recombinant Rim4-6×His; experiment: pull-down
recombinant Rim4-EGFP = molecular target: T3, recombinant Rim4-EGFP; experiment: pull-down

Row | stoichiometry N [1] | stoichiometry N (Bmh2) | binding result (recombinant Rim4-6×His) | binding result (recombinant Rim4-EGFP) | Molecule
1 | 1 | – | – | – | Bmh2 (from UniProt P34730 1-273) (natural protein)
2 | 1 | 1 | – | – | Bmh1 (natural protein, UniProt P29311 1-267, looked up) MSTSREDSVYLAKLAEQAERYEEMVENMKTVASSGQELSVEERNLLSVAYKNVIGARRASWRIVSSIEQKEESKEKSEHQVELICSYRSKIETELTKISDDILSVLDSHLIPSATTGESKVFYYKMKGDYHRYLAEFSSGDAREKATNASLEAYKTASEIATTELPPTHPIRLGLALNFSVFYYEIQNSPDKACHLAKQAFDDAIAELDTLSEESYKDSTLIMQLLRDNLTLWTSDMSESGQAEDQQQQQQHQQQQPPAAAEGEAPK
3 | – | – | binds | binds | recombinant Cdc14-FLAG (enzyme, S. cerevisiae, UniProt Q00684 1-551, looked up) MRRSVYLDNTIEFLRGRVYLGAYDYTPEDTDELVFFTVEDAIFYNSFHLDFGPMNIGHLYRFAVIFHEILNDPENANKAVVFYSSASTRQRANAACMLCCYMILVQAWTPHQVLQPLAQVDPPFMPFRDAGYSNADFEITIQDVVYGVWRAKEKGLIDLHSFNLESYEKYEHVEFGDFNVLTPDFIAFASPQEDHPKGYLATKSSHLNQPFKSVLNFFANNNVQLVVRLNSHLYNKKHFEDIGIQHLDLIFEDGTCPDLSIVKNFVGAAETIIKRGGKIAVHCKAGLGRTGCLIGAHLIYTYGFTANECIGFLRFIRPGMVVGPQQHWLYLHQNDFREWKYTTRISLKPSEAIGGLYPLISLEEYRLQKKKLKDDKRVAQNNIEGELRDLTMTPPSNGHGALSARNSSQPSTANNGSNSFKSSAVPQTSPGQPRKGQNGSNTIEDINNNRNPTSHANRKVVIESNNSDDESMQDTNGTSNHYPKVSRKKNDISSASSSRMEDNEPSATNINNAADDTILRQLLPKNRRVTSGRRTTSAAGGIRKISGSIKK
